This passage reports binding result and Kd results from patent publication US20250346655 (published 2025).

Assay [1] has as its target alpha-synuclein physiologic tetramer (human, UniProt P37840). The experiment in a line: SPR. On the technique in general: SPR reads the build-up and loss of mass on a sensor chip optically.
Another assay concerns the target gamma-synuclein monomer (human, UniProt O76070). Kind of assay: ELISA. On the technique in general: An ELISA detects its analyte on a solid surface through an enzyme-linked reagent.
The target in a further assay is alpha-synuclein monomer (human, UniProt P37840). Kind of assay: SPR.
The next assay deals with beta-synuclein monomer (human, UniProt Q16143). Kind of assay: ELISA.
beta-synuclein monomer, sequence (Q16143 whole entry): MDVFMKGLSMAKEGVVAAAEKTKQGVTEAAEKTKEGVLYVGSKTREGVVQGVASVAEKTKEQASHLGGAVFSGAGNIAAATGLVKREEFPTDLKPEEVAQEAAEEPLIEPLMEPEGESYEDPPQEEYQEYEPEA
The next assay deals with alpha-synuclein oligomer (human, UniProt P37840). Kind of assay: SPR.
For assay [2], the target named is alpha-synuclein sonicated fibrils (human, UniProt P37840). Kind of assay: SPR.

gamma-synuclein monomer, sequence (O76070 whole entry): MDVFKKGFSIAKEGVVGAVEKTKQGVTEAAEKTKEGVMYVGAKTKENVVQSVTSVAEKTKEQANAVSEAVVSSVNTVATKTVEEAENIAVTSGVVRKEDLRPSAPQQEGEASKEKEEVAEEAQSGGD

B1: 2E9 (antibody, V domains shown)
VH: EVKLLESGGGLVQPGGSLKLSCAASGFDFSRYWMNWVRQAPGKGLEWIGEINPHSSTINYAPSLKDKFIISRDNAKNTLYLQMSKVRSEDTALYYCGRGDYVDYWGLGTTLTVSS
VL: DIVMSQSPSSLAVSVGEKVTMSCKSSQSLLYSRNQKNYLAWYQQKPGQSPKLLIYWASTRESGVPDRFTGSGSGTDFTLTISSVKADDLAVYYCQQYYSYPRTFGGGTKLEIK
By Kd is commonly meant the equilibrium constant for the complex coming apart. The low end stands for higher affinity, the high end for lower affinity. Regarding B1, the binding result (in assay [1]; with gamma-synuclein monomer; in the assay with alpha-synuclein monomer; in the assay with beta-synuclein monomer) was “no binding” in each case. The Kd was 431 nM with alpha-synuclein oligomer and 9 nM in assay [2].

B2: 12B12 (antibody, V domains shown)
VH: EVQLQQSGAELVKPGASVKLSCTASGFNIKDTYIHWVKQRPEQGLEWIGRIDPANGNTNYDPKFQDKATITADTSSNTAYLQFSSLTSEDTAVYYCSNWDYFDYWGQGTTLTVSS
VL: not shown
Consider B2, for which the binding result (in assay [1]; in the assay with alpha-synuclein monomer) was “no binding” each time. Further, the dissociation constant (Kd) in the assay with alpha-synuclein oligomer worked out at 985 nM; in assay [2] it was 8 nM.

B3: 12G1 (antibody, V domains shown)
VH: QIQLVQSGPELRKPGETVRISCKASGYTFTTAGMQWVQKMPGKGLKWIGWINTHSGVPKYAEDFKGRFAFSLETSASTAYLQISNLKNEDTATYFCARTSWAPYWGQGTLVTVSA
VL: not shown
For B3, the binding result (in assay [1]; with alpha-synuclein monomer) was “no binding” each time. In addition, the Kd with alpha-synuclein oligomer came out at 1610 nM; in assay [2] it was 20 nM.
